The text below walks through data of paper PMC10463352, “A signaling complex of adenylate cyclase CyaC of Sinorhizobium meliloti with cAMP and the transcriptional regulators Clr and CycR” (BMC Microbiology, 2023).

As usually defined, the stoichiometry N is a count of units in the complex or per binding partner. Broadly, the Kd is the constant that tells how readily two partners part at equilibrium. High values mean a looser complex, low ones a tighter complex.

B1: His6-CyaC (enzyme, Sinorhizobium meliloti, UniProt Q92MZ6 1-557, looked up)
chain: MTILSASTRKKMHLISGAVLGVFVLLHFSNHALGLVSIDAMETGRRIFTSVWQSIPGTALLYGALLLHFLMALDSLYRRQTFRMPVGEALKIIFGLSLPFLLVPHVVAARVEPLLSGVYPDYPAILRTLWSSSFNTSRQSLALIVVWGHACLGAWFWMRGRAWFPKYETLLYTVALLVPIFALLGFVNGARSLERDYAEHGGYGDRAYSSQAPRVDPNLLDKIRLAFYGGFASLIGGTLVLRALPARGRIRIRYPDGRVAAVSLGFSVLEASRAAGIPHVSVCGGRGRCSTCRVRITQGLEGQPPPEAAELATLTRIGAPENVRLACQFRPVHNVSVVPILDTDSLGIKTQLARQNAGGRERRVAVLFCDLRDFTRIAEHRLPYDTVFLLNRYFEVVGEAVEGSGGVVDKFIGDGALAIFGLKTPLPEACRQALSAAARLSQGIRALNQTFEGELEQPLRLAIGLHAGPAIIGEMGYGQATSLTVVGDTINTASRLEGLAKEHDVELAVSAELVERAGLSFEGHRRLEIGLRGRKATLETWIIGDAAQLSLSLPMQG
notes: His6-CyaC printed as 64.0 kDa; Solubilised in detergent; also called SMc01818 protein; source: E. coli C43(DE3) with pMW3043, extracted from membranes with 1% n-dodecyl-β-D-maltoside, purified (Ni2+-NTA); not shown: His6, N-terminal, kept
B2: CycR-Strep (natural protein, Sinorhizobium meliloti, UniProt Q92MZ5 1-213, looked up)
chain: MVLPRAARTQRRTRIQEEKEEQILEAALEVFSANGFRGSTIDQIADVAGMSKPNLLYYFRTKEAMHRALIDRVLDTWLDPLRAFDAEGNPVAEIRSYIRRKLEMARDFPRESRLFANEVLQGAPRIVDELKGPLKQLVDEKAEVIRSWAKAGKIAKCDPYHLIFAIWSTTQHYADFDVQVRAVLGQENAGEGRFEDAARFLERLFVDGLQVRE
notes: TetR-like transcriptional regulator CycR (TR01819, product of gene smc01819) of Sinorhizobium meliloti; CycR-Strep printed as 28.3 kDa; The purification is told in words only for Clr-Strep; also called Strep-CycR; TR01819; source: E. coli BL21(DE3) with pMW3065, purified; not shown: Strep, C-terminal, kept

Test [1] concerns the target CyaC(K410A T484A), fused to the T18 or T25 fragment of Bordetella pertussis adenylate cyclase (Sinorhizobium meliloti). The experiment in a line: two-hybrid; bacterial adenylate cyclase two-hybrid (BACTH) in E. coli BTH101; T18 and T25 fusions co-expressed from plasmids; grown anaerobically in LB with 20 mM DMSO; β-galactosidase read-out, percent of the Zip-T18/Zip-T25 positive control.

The test “CycR-Strep” concerns the target B2. Nature of the test: SPR; Biacore T200, CM5 chip with StrepTactin; about 200 RU CycR-Strep captured; His6-CyaC injected at 10-5,000 nM; HBS-EP+ (10 mM HEPES pH 7.4, 150 mM NaCl, 3 mM EDTA, 0.05% P20), 25 °C; without cAMP. Particulars: both partners purified. On the technique in general: Surface plasmon resonance follows binding to a sensor surface in real time, without labels.

Test [2] has as its target B1. Described as above. Particulars: both partners purified.
In test [3] the target is B1. Nature of the test: SPR; Biacore T200, CM5 chip with StrepTactin; about 200 RU CycR-Strep captured; His6-CyaC injected at 10-5,000 nM; HBS-EP+ (10 mM HEPES pH 7.4, 150 mM NaCl, 3 mM EDTA, 0.05% P20), 25 °C; with 500 µM cAMP. Particulars: both partners purified.

Take “Clr (Smc02175), fused to the T18 or T25 fragment of Bordetella pertussis adenylate cyclase (natural protein)”: the BACTH β-galactosidase activity, percent of the Zip positive control in test [1] amounted to 108%.

Take B1: in the test with CycR-Strep, the “stoichiometry N” value amounted to 1.

Regarding B2, the Kd came to 160 nM with His6-CyaC [2] and 114 nM with His6-CyaC [3].
